Experimental data from patent publication US12269859B2, “Synthetic immune receptors and methods of use thereof” (Angeles Therapeutics, Inc., priority 2016, dated 2025).

Tested on: target antigen-expressing cell line
Test: Jurkat NFAT-GFP assay, coculture with target cell lines expressing the respective target antigen (summary Table 10A)
Assay type: cell-based, human
Set-up: key: The signs +/−, +, 2+ etc. after the name of the cell lines indicate the relative degree of positivity on the Jurkat-NFAT-GFP assay as measured by the % GFP positive cells; +: relative degree of positivity on the Jurkat-NFAT-GFP assay as measured by the % GFP positive cells; 2+: relative degree of positivity on the Jurkat-NFAT-GFP assay as measured by the % GFP positive cells
Method in brief: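 Jurkat cells carrying an NFAT-driven GFP reporter and lentivirally expressing a SIR were cocultured with antigen-bearing target cells (E:T ~1:2) for about 4–18 h. GFP induction read by flow cytometry as % GFP+ cells, scored positive and graded (+/−, +, 2+) against parental Jurkat-NFAT-GFP cells.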

[1] = coculture with TF228.1.1.6 cells

| Molecule | NFAT-GFP ASSAY Positive Cell lines (coculture with A431 cells) | NFAT-GFP ASSAY Positive Cell lines (coculture with MCF7 cells) | NFAT-GFP ASSAY Positive Cell lines (coculture with SKBR3 cells) | NFAT-GFP ASSAY Positive Cell lines (coculture with HL2-3 cells) | NFAT-GFP ASSAY Positive Cell lines [1] |
| --- | --- | --- | --- | --- | --- |
| 040716-B03 (protein, Synthetic Immune Receptor (SIR)) MALPVTALLLPLALLLHAARPLEGKPIPNPLLGLDSTGSGEDLKNVFPPEVAVFEPSKAEIAHTQKATLVCLATGFYPDHVELSWWVNGKEVHSGVCTDPQPLKEQPALNDSRYCLSSRLRVSATFWQNPRNHFRCQVQFYGLSENDEWTQDRAKPVTQIVSAEAWGRADCGITSASYHQGVLSATILYEILLGKATLYAVLVSALVLMAMVKRKDSRGRAKRSGSGATNFSLLKQAGDVEENPGPTSMALPVTALLLPLALLLHAARPDEFDVQLVESGGGLVQPGGSLRLSCAASGSIGGLNAMAWYRQAPGKERELVAGIFGVGSTRYADSVKGRFTISRDNSKNTVYLQMNSLRPEDTAVYYCRMSSVTRGSSDYWGQGTLVTVSSLEGGGGSGGGGSGGGGSGSGGSGSGGSGSGGSGSGGSFEVQLVESGGSLVQPGGSLRLSCAASGFTFDDYAMSWVRQVPGKGLEWVSSINWSGTHTDYADSVKGRFTISRNNANNTLYLQMNSLKSEDTAVYYCAKNWRDAGTTWFEKSGSAGQGTQVTVSSTREQKLISEEDGSGIQNPDPAVYQLRDSKSSDKSVCLFTDFDSQTNVSQSKDSDVYITDKCVLDMRSMDFKSNSAVAWSNKSDFACANAFNNSIIPEDTFFPSSDVPCDVKLVEKSFETDTNLNFQNLSVIGFRILLLKVAGFNLLMTLRLWSSRAKRSGSGVKQTLNFDLLKLAGDVESNPGPSRGHMTEYKPTVRLATRDDVPRAVRTLAAAFADYPATRHTVDPDRHIERVTELQELFLTRVGLDIGKVWVADDGAAVAVWTTPESVEAGAVFAEIGPRMAELSGSRLAAQQQMEGLLAPHRPKEPAWFLATVGVSPDHQGKGLGSAVVLPGVEAAERAGVPAFLETSAPRNLPFYERLGFTVTADVEVPEGPRTWCMTRKPGA | (+), A431 (+) | MCF7 (+/−), SKBR3 | (+), A431 (+) |  |  |
| 040716-H06 (protein, Polynucleotide encoding a Synthetic Immune Receptor (SIR)) MALPVTALLLPLALLLHAARPDEFDVQLVESGGGLVQPGGSLRLSCAASGSIGGLNAMAWYRQAPGKERELVAGIFGVGSTRYADSVKGRFTISRDNSKNTVYLQMNSLRPEDTAVYYCRMSSVTRGSSDYWGQGTLVTVSSLEGGGGSGGGGSGGGGSGSGGSGSGGSGSGGSGSGGSFEVQLVESGGSLVQPGGSLRLSCAASGFTFDDYAMSWVRQVPGKGLEWVSSINWSGTHTDYADSVKGRFTISRNNANNTLYLQMNSLKSEDTAVYYCAKNWRDAGTTWFEKSGSAGQGTQVTVSSTREQKLISEEDGSGIQNPDPAVYQLRDSKSSDKSVCLFTDFDSQTNVSQSKDSDVYITDKCVLDMRSMDFKSNSAVAWSNKSDFACANAFNNSIIPEDTFFPSSDVPCDVKLVEKSFETDTNLNFQNLSVIGFRILLLKVAGFNLLMTLRLWSSRAKRSGSGVKQTLNFDLLKLAGDVESNPGPSRGHMTEYKPTVRLATRDDVPRAVRTLAAAFADYPATRHTVDPDRHIERVTELQELFLTRVGLDIGKVWVADDGAAVAVWTTPESVEAGAVFAEIGPRMAELSGSRLAAQQQMEGLLAPHRPKEPAWFLATVGVSPDHQGKGLGSAVVLPGVEAAERAGVPAFLETSAPRNLPFYERLGFTVTADVEVPEGPRTWCMTRKPGA |  | MCF7 (+), SKBR3 (+) | MCF7 (+), SKBR3 (+) |  |  |
| 091616-Y01 (protein, Synthetic Immune Receptor (SIR)) MALPVTALLLPLALLLHAARPDIQMTQSPSSLSASVGDTVTITCQANGYLNWYQQRRGKAPKLLIYDGSKLERGVPSRFSGRRWGQEYNLTINNLQPEDIATYFCQVYEFVVPGTRLDLKRTVAAPLEEQKLISEEDLGSGEDLKNVFPPEVAVFEPSKAEIAHTQKATLVCLATGFYPDHVELSWWVNGKEVHSGVCTDPQPLKEQPALNDSRYCLSSRLRVSATFWQNPRNHFRCQVQFYGLSENDEWTQDRAKPVTQIVSAEAWGRADCGITSASYHQGVLSATILYEILLGKATLYAVLVSALVLMAMVKRKDSRGRAKRSGSGATNFSLLKQAGDVEENPGPTSMDWIWRILFLVGAATGAHSFEQVQLLQSGAAVTKPGASVRVSCEASGYNIRDYFIHWWRQAPGQGLQWVGWINPKTGQPNNPRQFQGRVSLTRHASWDFDTFSFYMDLKALRSDDTAVYFCARQRSDYWDFDVWGSGTQVTVSSASTKGPTREQKLISEEDGSGIQNPDPAVYQLRDSKSSDKSVCLFTDFDSQTNVSQSKDSDVYITDKCVLDMRSMDFKSNSAVAWSNKSDFACANAFNNSIIPEDTFFPSSDVPCDVKLVEKSFETDTNLNFQNLSVIGFRILLLKVAGFNLLMTLRLWSSRAKRSGSGVKQTLNFDLLKLAGDVESNPGPSRGHMTEYKPTVRLATRDDVPRAVRTLAAAFADYPATRHTVDPDRHIERVTELQELFLTRVGLDIGKVWVADDGAAVAVWTTPESVEAGAVFAEIGPRMAELSGSRLAAQQQMEGLLAPHRPKEPAWFLATVGVSPDHQGKGLGSAVVLPGVEAAERAGVPAFLETSAPRNLPFYERLGFTVTADVEVPEGPRTWCMTRKPGA |  |  |  | HL2-3 (+/−) |  |
| 091616-X01 (protein, Synthetic Immune Receptor (SIR)) MALPVTALLLPLALLLHAARPELVLTQSPGTLSLSAGERATLSCRASQSVSSGSLAWYQQKPGQAPRLLIYGASTRATGIPDRFSGSGSGTDFTLTIGRLEPEDLAVYYCQQYGTSPYTFGQGTKLEILEEQKLISEEDLGSGEDLKNVFPPEVAVFEPSKAEIAHTQKATLVCLATGFYPDHVELSWWVNGKEVHSGVCTDPQPLKEQPALNDSRYCLSSRLRVSATFWQNPRNHFRCQVQFYGLSENDEWTQDRAKPVTQIVSAEAWGRADCGITSASYHQGVLSATILYEILLGKATLYAVLVSALVLMAMVKRKDSRGRAKRSGSGATNFSLLKQAGDVEENPGPTSMDWIWRILFLVGAATGAHSFELEQSGAEVKKPGSSVQVSCKASGGTFSMYGFNWVRQAPGHGLEWMGGIIPIFGTSNYAQKFRGRVTFTADQATSTAYMELTNLRSDDTAVYYCARDFGPDWEDGDSYDGSGRGFFDFWGQGTLVTVSSTREQKLISEEDGSGIQNPDPAVYQLRDSKSSDKSVCLFTDFDSQTNVSQSKDSDVYITDKCVLDMRSMDFKSNSAVAWSNKSDFACANAFNNSIIPEDTFFPSSDVPCDVKLVEKSFETDTNLNFQNLSVIGFRILLLKVAGFNLLMTLRLWSSRAKRSGSGVKQTLNFDLLKLAGDVESNPGPSRGHMTEYKPTVRLATRDDVPRAVRTLAAAFADYPATRHTVDPDRHIERVTELQELFLTRVGLDIGKVWVADDGAAVAVWTTPESVEAGAVFAEIGPRMAELSGSRLAAQQQMEGLLAPHRPKEPAWFLATVGVSPDHQGKGLGSAVVLPGVEAAERAGVPAFLETSAPRNLPFYERLGFTVTADVEVPEGPRTWCMTRKPGA |  |  |  | HL2-3 (+/−) | TF228.1.1.6 (+), |
| 121416-H05 (protein, Polynucleotide encoding a Synthetic Immune Receptor (SIR)) MALPVTALLLPLALLLHAARPLEGKPIPNPLLGLDSTGSGEDLKNVFPPEVAVFEPSKAEIAHTQKATLVCLATGFYPDHVELSWWVNGKEVHSGVCTDPQPLKEQPALNDSRYCLSSRLRVSATFWQNPRNHFRCQVQFYGLSENDEWTQDRAKPVTQIVSAEAWGRADCGITSASYHQGVLSATILYEILLGKATLYAVLVSALVLMAMVKRKDSRGRAKRSGSGATNFSLLKQAGDVEENPGPTSMALPVTALLLPLALLLHAARPDYIHVTQSPSSLSVSIGDRVTINCQTSQGVGSDLHWYQHKPGRAPKLLIHHASSVEDGVPSRFSGTGFHTSFNLTINDLQADDIGTYYCQVLQSFGRGSRLDTKGGGGSGGGGSGGGGSRAHLVQSGTAMKKPGASVRVSCQTSGYTFTAHILFWFRQAPGRGLEWVGWIKPQYGAVNFGGGFRDRVTLTRDVYREIAYMDIRGLKPDDTAVYYCARDRSYGDSSWALDAWGQGTTVVVSATREQKLISEEDGSGIQNPDPAVYQLRDSKSSDKSVCLFTDFDSQTNVSQSKDSDVYITDKCVLDMRSMDFKSNSAVAWSNKSDFACANAFNNSIIPEDTFFPSSDVPCDVKLVEKSFETDTNLNFQNLSVIGFRILLLKVAGFNLLMTLRLWSSRAKRSGSGVKQTLNFDLLKLAGDVESNPGPSRGHMTEYKPTVRLATRDDVPRAVRTLAAAFADYPATRHTVDPDRHIERVTELQELFLTRVGLDIGKVWVADDGAAVAVWTTPESVEAGAVFAEIGPRMAELSGSRLAAQQQMEGLLAPHRPKEPAWFLATVGVSPDHQGKGLGSAVVLPGVEAAERAGVPAFLETSAPRNLPFYERLGFTVTADVEVPEGPRTWCMTRKPGA |  |  |  | HL2-3 (+/−), | TF228.1.1.6 (+/−) |
| 121416-D03 (protein, Synthetic Immune Receptor (SIR)) MALPVTALLLPLALLLHAARPLEQKLISEEDLGSGDRPDPAVYQLRDSKSSDKSVCLFTDFDSQTNVSQSKDSDVYITDKCVLDMRSMDFKSNSAVAWSNKSDFACANAFNNSIIPEDTFFPSPESSCDVKLVEKSFETDTNLNFQNLSVIGFRILLLKVAGFNLLMTLRLWSSSSRAKRSGSGVKQTLNFDLLKLAGDVESNPGPTSMALPVTALLLPLALLLHAARPDYIHVTQSPSSLSVSIGDRVTINCQTSQGVGSDLHWYQHKPGRAPKLLIHHASSVEDGVPSRFSGTGFHTSFNLTINDLQADDIGTYYCQVLQSFGRGSRLDTKGGGGSGGGGSGGGGSRAHLVQSGTAMKKPGASVRVSCQTSGYTFTAHILFWFRQAPGRGLEWVGWIKPQYGAVNFGGGFRDRVTLTRDVYREIAYMDIRGLKPDDTAVYYCARDRSYGDSSWALDAWGQGTTVVVSATRGKPIPNPLLGLDSTGSGEDLKNVFPPEVAVFEPSEAEISHTQKATLVCLATGFYPDHVELSWWVNGKEVHSGVCTDPQPLKEQPALNDSRYCLSSRLRVSATFWQNPRNHFRCQVQFYGLSENDEWTQDRAKPVTQIVSAEAWGRADCGFTSESYQQGVLSATILYEILLGKATLYAVLVSALVLMAMVKRKDSRGRAKRSGSGATNFSLLKQAGDVEENPGPSRGHMTEYKPTVRLATRDDVPRAVRTLAAAFADYPATRHTVDPDRHIERVTELQELFLTRVGLDIGKVWVADDGAAVAVWTTPESVEAGAVFAEIGPRMAELSGSRLAAQQQMEGLLAPHRPKEPAWFLATVGVSPDHQGKGLGSAVVLPGVEAAERAGVPAFLETSAPRNLPFYERLGFTVTADVEVPEGPRTWCMTRKPGA |  |  |  | HL2-3 (+/−), | TF228.1.1.6 (+) |
